Source: paper PMC11316058

Target: Hsp90α (N-terminally His-tagged, human) (human) (UniProt P07900)
Assay: ITC; Ahsa1 or Ahsa1^Δ20 (200-300 µM) in the syringe injected into Hsp90-α (30 µM) in the cell; 25 °C; 30 mM Tris pH 7.5, 20 mM KCl, 10% glycerol, 1 mM TCEP; two-site-binding model; three independent experiments

Kd [µM]	Substance
3.2	Ahsa1^Δ20 (C-terminal 6xHis) (from UniProt O95433 21-338) (domain or fragment)
1.73	full-length Ahsa1 (C-terminal 6xHis) (from UniProt O95433 1-338) (natural protein)
